Data reported in patent publication CN110028578A.

Experiments:
[1] = target: A/Guangdong/17SF003/2016 H7N9 HA extracellular domain 11-505 (H3 numbering) with C-terminal T4 trime (Influenza A virus A/Guangdong/17SF003/2016 H7N9); assay: BLI, biotinylated HA on streptavidin probe, antibody in solution
[2] = target: A/Shanghai/2/2013 H7N9 HA extracellular domain 11-505 (H3 numbering) with C-terminal T4 trimerisatio (Influenza A virus A/Shanghai/2/2013 H7N9); assay: as above

B1: P52E03 IgG (antibody, V domains shown)
VH: QVQLVQSGGGLVQPGRSLRLSCAASGFTFDDYAMHWVRQAPGKGLEWVSGISWNSGSIGYADSVKGRFTISRDNAKNSLYLQMNSLRAEDTALYYCAKGLNSSGWYVYFDYWGQGTLVTVSS
VL: EIVLTQSPGTLSLSPGERATLSCRASQTVARNYLAWYQQKPGQAPRLLMYDPSSRPAGIPDRFSGSGSGTDFTLTISRLEPEDSAVYFCQQYGSPPLTFGGGTKIEIKR
Kd [1]: 10.5 nM
Kd [2]: 157 nM
